# Measured values published in the supplement of paper PMC12667976.
# ± gives the standard error.
# B1: library; numbered along this chain (parent)
# chain: MATDAALRRLLRLHRTEIAVAVDSAFPLLHALADHDVVPEDKFQETLHLKEKEGCPQAFHALLSWLLTQDSTAILDFWRVLFKDYNLERYGRLQPILDSFPKDVDLSQPRKGRKPPAVPKALVPPPRLPTKRKASEEARAAAPAALTPRGTASPGSQLKAKPPKKPESSAEQQRLPLGNGIQTMSASVQRAVAMSSGDVPGARGAVEGILIQQVFESGGSKKCIQVGGEFYTPSKFEDSGSGKNKARSSSGPKPLVRAKGAQGAAPGGGEARLGQQGSVPAPLALPSDPQLHQKNEDECAVCRDGGELICCDGCPRAFHLACLSPPLREIPSGTWRCSSCLQATVQEVQPRAEEPRPQEPPVETPLPPGLRSAGEEVRGPPGEPLAGMDTTLVYKHLPAPPSAAPLPGLDSSALHPLLCVGPEGQQNLAPGARCGVCGDGTDVLRCTHCAAAFHWRCHFPAGTSRPGTGLRCRSCSGDVTPAPVEGVLAPSPARLAPGPAKDDTASHEPALHRDDLESLLSEHTFDGILQWAIQSMARPAAPFPS
# Variants of: B1
# Test: AIRE transcriptional activation functional score (insulin promoter-GFP; nonsense median 0, synonymous median 1) (normalised score); higher = higher AIRE activity (more reporter activation)
# Settings: with insulin promoter-GFP reporter in HEK293
# Description: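 Deep mutational scan of full-length human AIRE (codon-optimized cDNA, DT-POPCode NNN libraries over three regions) integrated at a Bxb1 landing pad in HEK293 cells carrying an insulin core promoter-GFP reporter at a Flp-In site. Cells were sorted for the top 10% GFP about 14 days after transfection. Variant frequency log-ratios (select vs non-select, TileSeq) were rescaled so that the nonsense median is 0 and the synonymous median is 1, then averaged over biological replicates.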
row,Variant,AIRE transcriptional activation functional score
1,K259M,1.2 ± 0.096
2,K259L,0.941 ± 0.35
3,K259P,0.82 ± 0.18
4,K259E,0.714 ± 0.14
5,K259F,1.08 ± 0.035
6,K259Y,1.31 ± 0.23
7,K259G,-0.585 ± 0.16
8,K259I,0.551 ± 0.072
9,K259C,1.33 ± 0.045
10,K259H,0.439 ± 0.14
11,K259S,0.917 ± 0.14
12,K259A,1.23 ± 0.051
13,K259N,1.03 ± 0.069
14,K259D,-0.753 ± 0.084
15,K259R,0.916 ± 0.19
16,K259T,0.966 ± 0.32
17,K259W,1.19 ± 0.089
18,K259Q,0.922 ± 0.061
19,G260E,1.03 ± 0.07
20,G260A,0.8 ± 0.44
21,G260C,1.01 ± 0.12
22,G260D,0.772 ± 0.12
23,R257I,0.805 ± 0.25
24,R257P,0.935 ± 0.26

row,Variant,AIRE transcriptional activation functional score
1,R257C,-0.159 ± 0.18
2,R257G,0.771 ± 0.33
3,R257S,0.904 ± 0.32
4,R257W,0.743 ± 0.19
5,R257A,0.916 ± 0.36
6,R257V,0.256 ± 0.14
7,R257L,0.834 ± 0.23
8,R257F,0.785 ± 0.1
9,R257M,0.588 ± 0.062
10,R257Q,0.729 ± 0.17
11,R257T,0.86 ± 0.26
12,R257D,1.16 ± 0.094
13,R257K,0.866 ± 0.11
14,R257E,1.12 ± 0.33
15,R257N,-1.39 ± 0.2
16,S250W,0.939 ± 0.071
17,S250Y,1.26 ± 0.29
18,A258D,0.387 ± 0.22
19,A258L,0.814 ± 0.13
20,A258R,0.0043 ± 0.35
21,A258F,1.19 ± 0.16
22,A258E,1.13 ± 0.18
23,A258W,1.05 ± 0.052
24,A258Q,0.586 ± 0.085

row,Variant,AIRE transcriptional activation functional score
1,A258I,0.643 ± 0.33
2,A258T,0.978 ± 0.33
3,A258P,1.23 ± 0.13
4,A258H,1.05 ± 0.11
5,A258G,0.943 ± 0.19
6,A258S,0.657 ± 0.26
7,A258V,1.36 ± 0.27
8,A258M,0.409 ± 0.07
9,A258C,1.18 ± 0.19
10,P254R,0.606 ± 0.37
11,P254D,0.547 ± 0.13
12,P254L,1.01 ± 0.3
13,P254Q,1.2 ± 0.15
14,P254E,0.818 ± 0.2
15,P254I,0.86 ± 0.25
16,P254A,0.885 ± 0.26
17,P254N,-0.115 ± 0.07
18,P254S,0.995 ± 0.39
19,P254G,0.342 ± 0.34
20,P254K,0.683 ± 0.3
21,P254F,0.266 ± 0.23
22,P254C,1.24 ± 0.51
23,P254W,1.07 ± 0.05
24,P254Y,1.28 ± 0.062

row,Variant,AIRE transcriptional activation functional score
1,P254V,1.27 ± 0.26
2,P254T,0.737 ± 0.27
3,P254H,0.946 ± 0.19
4,P254M,0.826 ± 0.054
5,P252Y,0.649 ± 0.21
6,P252G,0.0827 ± 0.056
7,P252H,0.544 ± 0.15
8,P252V,1.35 ± 0.25
9,P252A,1.02 ± 0.24
10,P252R,0.567 ± 0.33
11,P252L,1.15 ± 0.28
12,P252W,0.608 ± 0.056
13,P252I,0.937 ± 0.16
14,P252Q,0.904 ± 0.34
15,P252S,1.03 ± 0.18
16,P252M,1.88 ± 0.082
17,P252F,0.977 ± 0.083
18,P252T,0.961 ± 0.079
19,P252D,0.862 ± 0.034
20,P252N,1.41 ± 0.035
21,P252C,0.763 ± 0.089
22,K253A,1.28 ± 0.23
23,K253T,0.479 ± 0.19
24,K253W,1.23 ± 0.048

row,Variant,AIRE transcriptional activation functional score
1,K253P,0.292 ± 0.33
2,K253Y,0.499 ± 0.15
3,K253Q,1.95 ± 0.1
4,K253C,1.39 ± 0.044
5,K253F,0.823 ± 0.3
6,K253V,0.867 ± 0.22
7,K253I,0.921 ± 0.25
8,K253N,0.817 ± 0.22
9,K253R,0.777 ± 0.38
10,K253M,1.04 ± 0.18
11,K253S,0.754 ± 0.35
12,K253E,0.587 ± 0.27
13,K253G,0.631 ± 0.2
14,K253L,0.694 ± 0.29
15,K253D,-0.542 ± 0.09
16,L255V,1 ± 0.28
17,L255P,1.03 ± 0.26
18,L255H,1.28 ± 0.12
19,L255N,0.614 ± 0.2
20,L255M,-0.804 ± 0.072
21,L255W,1.1 ± 0.054
22,L255Y,0.945 ± 0.21
23,L255S,0.79 ± 0.25
24,L255D,0.362 ± 0.098

row,Variant,AIRE transcriptional activation functional score
1,L255A,0.9 ± 0.5
2,L255Q,1.01 ± 0.26
3,L255R,0.419 ± 0.21
4,L255C,0.506 ± 0.13
5,L255G,1.24 ± 0.31
6,L255T,0.506 ± 0.39
7,L255I,0.98 ± 0.29
8,L255E,0.58 ± 0.065
9,L255F,1.43 ± 0.15
10,G251F,1.2 ± 0.13
11,G251P,-0.0792 ± 0.35
12,G251T,1.09 ± 0.15
13,G251V,1.22 ± 0.28
14,G251A,0.845 ± 0.12
15,G251I,1.2 ± 0.27
16,G251Y,1.42 ± 0.24
17,G251K,1.05 ± 0.051
18,G251D,1.2 ± 0.26
19,G251W,1.36 ± 0.093
20,G251Q,0.448 ± 0.19
21,G251L,1.21 ± 0.22
22,G251C,0.932 ± 0.18
23,G251R,0.585 ± 0.39
24,G251N,-0.159 ± 0.13

row,Variant,AIRE transcriptional activation functional score
1,G251M,0.603 ± 0.14
2,G251E,1.44 ± 0.14
3,G251S,0.796 ± 0.22
4,G251H,1.02 ± 0.059
5,V256D,0.705 ± 0.26
6,V256C,0.771 ± 0.33
7,V256G,1.05 ± 0.24
8,V256A,1.16 ± 0.34
9,V256Y,1.39 ± 0.17
10,V256E,0.8 ± 0.15
11,V256L,0.974 ± 0.23
12,V256Q,0.671 ± 0.27
13,V256H,0.851 ± 0.23
14,V256F,1.33 ± 0.23
15,V256R,0.207 ± 0.45
16,V256P,0.878 ± 0.24
17,V256M,0.911 ± 0.082
18,V256W,1.37 ± 0.027
19,V256K,0.102 ± 0.38
20,V256T,0.8 ± 0.3
21,V256N,0.685 ± 0.49
22,V256I,0.599 ± 0.084
23,V256S,1.07 ± 0.23
